Values quoted from earlier work, collected in publication PMC7602216.

Molecular target: UBA5 UIS (Homo sapiens) (UniProt Q9GZZ9)
Test: ITC

Substance: UFM1 (from UniProt P61960)
- Kd: 8 µM
